Test results as given in publication PMC8294330.

Key:
[1] = molecular target: PNPase S1x4;Hfq R681A;Q682A;R684A;R686A (Escherichia coli;Escherichia coli) (UniProt P05055+P0A6X3); test: EMSA; settings: EMSA: 0.4 uM RNA, PNPase trimer 1:1 and 3:1 over RNA, 20 mM Tris pH 7.5, 100 mM NaCl, 1 mM MgCl2, 1 mM DTT, 30 C 20 min; native PAA gel with 10% glycerol …
[2] = molecular target: PNPase WT;Hfq (Escherichia coli;Escherichia coli) (UniProt P05055+P0A6X3); test: cryo-EM; settings: EMSA: 0.4 uM RNA, PNPase trimer 1:1 and 3:1 over RNA, 20 mM Tris pH 7.5, 100 mM NaCl, 1 mM MgCl2, 1 mM DTT, 30 C 20 min; native PAA gel with 10% glycerol …

GCGAUCAGGAAGACCCUCGCGGAGAACCUGAAAGCACGACAUUGCUCACAUUGCUUCCAGUAUUACUUAGCCAGCCGGGUGCUGGCUUUUUUUUU [RyhB]
binding [1]: no binding | binding [2]: binds
